What was measured:
[1] = molecular target: T1, Specific Peptide (SEQ ID NO:4: GVPAEGAFTEDFQGLR) (human); assay: ELISA, peptide coated at 2 ug/ml, hybridoma supernatant diluted 100 times
T1 construct: Synthetic peptide coated on the ELISA plate; also called polypeptide number #1
T1 peptide: GVPAEGAFTEDFQGLR
Protocol: (§1) (1) Coating antigen: Specific Peptide and Elongated Peptide were respectively diluted with the coating solution, and coated at 2 μg/ml, 100 ul/well at 4° C. overnight; washed three times with the washing solution, 350 ul/well, and pat dried. (2) Blocking: 200 ul/well blocking solution, incubated at 37° C. for 2 h; washed three times with the washing solution, 350 ul/well, and pat dried. (3) The antibody (such as #25, #44, or #50) supernatant medium in Table 1 was diluted by 100 times with antibody diluent, 100 ul/well, and the blank was 100 ul antibody dilution, and they were incubated at 37° C. for 1 h; washed three times with the washing solution, 350 ul/well, and pat dried. (4) The secondary antibody was diluted with antibody diluent at a ratio of 1:10000, 100 ul/well, incubated at 37° C. for 1 h; washed three times with the washing solution, 350 ul/well, and pat dried. (5) Color development: 100 ul/well developer was added, incubating 10 min at room temperature. (6) Termination, reading: 100 ul/well stop solution was added, reading at OD 450 nm.

[2] = molecular target: T2, Elongated Peptide (SEQ ID NO:5: TDGVPAEGAFTEDFQGLR) (human); assay: as above
T2 construct: Synthetic peptide coated on the ELISA plate
T2 peptide: TDGVPAEGAFTEDFQGLR
Protocol: as §1

[3] = molecular target: T3, GSDMD-CT expressed protein (human, UniProt P57764 276-484); assay: competitive inhibition ELISA, coated GSDMD-CT vs soluble GSDMD-CT (FIG. 5)
T3 construct: Recombinantly expressed; also called recombinant GSDMD-CT; C-terminus of GSDMD
T3 sequence: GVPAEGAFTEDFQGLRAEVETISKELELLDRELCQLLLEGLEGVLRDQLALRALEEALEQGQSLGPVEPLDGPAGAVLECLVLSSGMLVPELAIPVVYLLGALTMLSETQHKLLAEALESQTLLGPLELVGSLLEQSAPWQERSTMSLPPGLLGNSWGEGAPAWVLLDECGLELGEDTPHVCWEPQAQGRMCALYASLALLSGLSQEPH
Protocol: The protein coating amount and antibody dilution concentration were preliminarily determined by checkerboard titration, and the experimental procedure was as follows:
(1) Coating antigen: The GSDMD-CT expressed protein was diluted with coating solution and coated at 2 ug/ml, 1 ug/ml, 0.5 ug/ml, 0.25 ug/ml, 100 ul/well overnight at 4° C.; washed three times with the washing solution, 350 ul/well, and pat dried. (2) Blocking: 200 ul/well blocking solution, incubated at 37° C. for 2 h; washed three times with the washing solution, 350 ul/well, and pat dried. (3) 1 ug/mL of #25, #44, and #50 antibodies was diluted 1,000 times with antibody diluent, then diluted with a 2-fold gradient, 100 μl/well, and blank was 100 μl of antibody diluent, and the antibodies were incubated at 37° C. for 1 h; washed three times with the washing solution, 350 ul/well, and pat dried. […] (6) Termination, reading: 100 ul/well stop solution was added, reading at OD 450 nm. (7) The dose curve of coating protein relative to antibody was determined. […] (10) 50 ul of sample solutions of different concentrations were added to 50 ul of diluted antibody, and then 100 ul of the mixture was added to the microplate reader plate and incubated for 1 h at 37° C.

B1: MD2106 #50 (antibody, IgG1, V domains shown)
VH: QVQLQQPGTELVKPGASVKLSCKASGYTFTNYWIHWVKQRPGQGLEWIGNTKPSNGDIHYNEKFRSKATLTVDKSSSTAYIQLSSLTSEDSAVYFCAVGYYWGQGTTLTVSS
VL: DIVMTQSPSSLTVTAGEKVTMSCKSSQSLLNSGNQKNYLTWYQQKPGQPPKMLIYWAYNRDSGVPDRFTGSGSGADFTLTISSVQAEDLAVYYCQNDYSYPLTFGAGTKLEL
notes: Mouse hybridoma monoclonal antibody; heavy chain type IgG1, light chain type kappa; Hybridoma supernatant diluted 100 times in the peptide ELISA; 1 ug/mL antibody, further diluted, in the GSDMD-CT ELISA; also called monoclonal antibody #50; MD2106-#5 #50
B1: binds [1]; no binding [2]; binds [3].
